According to EP4713370A2 (dated 2026):
One block for each binder: values may come before it.

Tests used:
[1] = target: T1, human NKp46 expressed on cells (primary human NK cells; CHOK1-hNKp46 cells) (human, UniProt O76036 22-304); test: flow cytometry on purified CD56+ human NK cells, anti-human IgG PE
T1 construct: whole, on cells; also called cell surface expressed NKp46; NCR1

[2] = target: T2, CD79b on target B cell lines (Ramos (CD79b+) cells; Daudi cells) (UniProt P40259 29-229, limits assumed); test: flow cytometry on Ramos cells, anti-human IgG PE
T2 construct: whole, on cells; On cells CD79b stands in the B cell receptor complex with CD79a; also called Ramos (CD79+) cells; CD79b expression cells
T2 sequence (looked up): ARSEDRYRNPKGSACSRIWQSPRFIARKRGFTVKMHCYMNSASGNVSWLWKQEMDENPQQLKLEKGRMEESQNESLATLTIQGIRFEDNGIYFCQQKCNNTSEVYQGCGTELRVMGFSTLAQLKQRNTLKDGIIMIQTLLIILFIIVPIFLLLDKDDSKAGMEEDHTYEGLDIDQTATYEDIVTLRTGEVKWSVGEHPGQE

[3] = target: T1, human NKp46 expressed on cells (primary …); test: flow cytometry on CHOK1-hNKp46 cells, anti-human IgG Fc PE
[4] = target: T2, CD79b on target B cell lines (Ramos …); test: flow cytometry on Ramos cells, anti-human IgG Fc PE

T1 sequence (O76036 22-304): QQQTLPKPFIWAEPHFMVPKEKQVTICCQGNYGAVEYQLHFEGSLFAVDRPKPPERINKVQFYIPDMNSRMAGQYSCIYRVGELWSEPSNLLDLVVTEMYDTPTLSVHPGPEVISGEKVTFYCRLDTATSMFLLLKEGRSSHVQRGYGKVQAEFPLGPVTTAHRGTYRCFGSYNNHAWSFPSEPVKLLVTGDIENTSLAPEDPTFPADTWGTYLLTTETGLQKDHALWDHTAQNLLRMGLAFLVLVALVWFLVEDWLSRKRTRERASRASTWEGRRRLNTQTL

binding result [3]: binds | binding result [4]: binds
B2: h44G2/h6-1 (LC) Fc-optimized (bispecific antibody, human IgG1, kappa)
heavy: EQQLVETGGGLIQPGGSLRLSCAASGFTINIDYWISWVRQAPGKGLEWIGIIDPGDGTTYFAIWVSGRFTISFDNSKNTVYLQMNSLRAEDTAVYFCVREFSASAYQYDLWGPGTLVTVSSASTKGPSVFPLAPSSKSTSGGTAALGCLVKDYFPEPVTVSWNSGALTSGVHTFPAVLQSSGLYSLSSVVTVPSSSLGTQTYICNVNHKPSNTKVDKKVEPKSCDKTHTCPPCPAPELLAGPSVFLFPPKPKDTLMISRTPEVTCVVVDVSHEDPEVKFNWYVDGVEVHNAKTKPREEQYNSTYRVVSVLTVLHQDWLNGKEYKCKVSNKALPLPEEKTISKAKGQPREPQVYTLPPSRDELTKNQVSLTCLVKGFYPSDIAVEWESNGQPENNYKTTPPVLDSDGSFFLYSKLTVDKSRWQQGNVFSCSVMHEALHNHYTQKSLSLSPGK
light: ELVMTQSPATLSVSPGERATLSCRASEDIENYLAWYQQKPGQPPRLLIYRASTLSSGVPARFSGSGSGTEFTLTISSLQSEDFAVYYCQQGYRNSNVDNPFGGGTKVEIKRTVAAPSVFIFPPSDEQLKSGTASVVCLLNNFYPREAKVQWKVDNALQSGNSQESVTEQDSKDSTYSLSSTLTLSKADYEKHKVYACEVTHQGLSSPVTKSFNRGECGGGGSGGGGSGGGGSDVQMTQSPSTLSASVGDRVTITCQASENIYSSLAWYQQKPGKPPKLLMYDVSDLASGVPSRFSGSGSGTEFTLTISSLQPDDFATYFCLGGYPSNNYRMAFGCGTKVEIKGGGGSGGGGSGGGGSGGGGSEQQLLESGGGLVQPGGSLRLSCAASGFSFSSSAWIVWVRQAPGKCLEWIGVINTVSVNAYYASWAKGRFTISKDSSKNTVYLQMNSLRAEDTAVYFCARNPYNSLRLWGPGTLVTVSS
notes: LC format, optimized Fc; also called humanized CD79b/NKp46 bispecific antibody; humanized NK cell engager

binding result [1]: binds | binding result [2]: binds
B3: ch44G2/ch5-13 Fc-silenced (bispecific antibody, human IgG1, kappa, L234A L235A)
heavy: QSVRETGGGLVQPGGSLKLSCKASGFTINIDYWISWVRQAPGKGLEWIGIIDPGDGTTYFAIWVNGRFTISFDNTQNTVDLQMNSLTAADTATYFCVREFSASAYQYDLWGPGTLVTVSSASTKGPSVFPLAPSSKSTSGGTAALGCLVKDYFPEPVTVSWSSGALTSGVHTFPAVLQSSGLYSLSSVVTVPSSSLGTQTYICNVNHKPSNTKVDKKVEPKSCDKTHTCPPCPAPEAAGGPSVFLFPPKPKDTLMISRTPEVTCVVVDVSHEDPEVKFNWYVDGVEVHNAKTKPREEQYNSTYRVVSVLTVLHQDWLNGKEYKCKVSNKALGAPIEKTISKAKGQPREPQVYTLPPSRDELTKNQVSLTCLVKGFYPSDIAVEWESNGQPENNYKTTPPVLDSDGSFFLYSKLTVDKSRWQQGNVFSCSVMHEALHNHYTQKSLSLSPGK
light: DLVMTQTPSSVSAAVGGTVSINCRASEDIENYLAWYQQKPGQPPKLLIYRASTLSSGVSSRFSGSGSGTEFTLTISGVQPDDAATYYCQQGYRNSNVDNPFGGGTEMVVKRTVAAPSVFIFPPSDEQLKSGTASVVCLLNNFYPREAKVQWKVDNALQSGNSQESVTEQDSKDSTYSLSSTLTLSKADYEKHKVYACEVTHQGLSSPVTKSFNRGECGGGGSGGGGSGGGGSGGGGSAYDMTQTPASVEVAVGGTVTIKCQASQSISTALAWYQQKPGQPPKLLIYKASTLASGVSSRFKGSGSGTQFTLTISGVEPADAATYYCQQGYSRSNVDNVFGGGTEVVVKGGGGSGGGGSGGGGSGGGGSQSVEESGGRLVTPGTPLTLTCTVSGFSLSSYHMSWVRQAPGKGLEWIGYILANTDSYYANWAKGRFTISKTSTTVDLKITSPTTEDTATYFCARYDNHDAAYSTLWGPGTLVTVSS
notes: LC format, LALAPG silenced Fc; also called CD79b/NKp46 bispecific antibody; 44G2/5-13

binding result [3]: binds | binding result [4]: binds
B6: ch44G2/ch6-1 (LC) Fc-optimized (bispecific antibody, human IgG1, kappa)
heavy: QSVRETGGGLVQPGGSLKLSCKASGFTINIDYWISWVRQAPGKGLEWIGIIDPGDGTTYFAIWVNGRFTISFDNTQNTVDLQMNSLTAADTATYFCVREFSASAYQYDLWGPGTLVTVSSASTKGPSVFPLAPSSKSTSGGTAALGCLVKDYFPEPVTVSWNSGALTSGVHTFPAVLQSSGLYSLSSVVTVPSSSLGTQTYICNVNHKPSNTKVDKRVEPKSCDKTHTCPPCPAPELLAGPSVFLFPPKPKDTLMISRTPEVTCVVVDVSHEDPEVKFNWYVDGVEVHNAKTKPREEQYNSTYRVVSVLTVLHQDWLNGKEYKCKVSNKALPLPEEKTISKAKGQPREPQVYTLPPSRDELTKNQVSLTCLVKGFYPSDIAVEWESNGQPENNYKTTPPVLDSDGSFFLYSKLTVDKSRWQQGNVFSCSVMHEALHNHYTQKSLSLSPGK
light: DLVMTQTPSSVSAAVGGTVSINCRASEDIENYLAWYQQKPGQPPKLLIYRASTLSSGVSSRFSGSGSGTEFTLTISGVQPDDAATYYCQQGYRNSNVDNPFGGGTEMVVKRTVAAPSVFIFPPSDEQLKSGTASVVCLLNNFYPREAKVQWKVDNALQSGNSQESVTEQDSKDSTYSLSSTLTLSKADYEKHKVYACEVTHQGLSSPVTKSFNRGECGGGGSGGGGSGGGGSGGGGSADVVMTQTPASVSEPVGGTITINCQASENIYSSLAWYQQKPGQPPKLLMYDVSDLASGVPSRFSGSGSGTEFALTISDVQPDDAATYFCLGGYPSNNYRMAFGGGTEVVVKGGGGSGGGGSGGGGSGGGGSQSLEESGGGLVQPEGSLTLTCTASGFSFSSSAWICWVRQAPGKGLEWIGCINTVSVNAYYASWAKGRFTISKTSSTTVTLQVTSLTAADTATHFCARNPYNSLRLWGPGTLVTVSS
notes: LC format: the NKp46 scFv stands at the C terminus of the anti-CD79b light chain, with optimized Fc (G236A, A330L, I332E, EU numbering); also called chimeric CD79b/NKp46 bispecific antibody; NK cell engager

binding result [3]: binds | binding result [4]: binds
B7: h44G2/h6-1 (HC) Fc-optimized (bispecific antibody, human IgG1, kappa)
heavy: EQQLVETGGGLIQPGGSLRLSCAASGFTINIDYWISWVRQAPGKGLEWIGIIDPGDGTTYFAIWVSGRFTISFDNSKNTVYLQMNSLRAEDTAVYFCVREFSASAYQYDLWGPGTLVTVSSASTKGPSVFPLAPSSKSTSGGTAALGCLVKDYFPEPVTVSWNSGALTSGVHTFPAVLQSSGLYSLSSVVTVPSSSLGTQTYICNVNHKPSNTKVDKKVEPKSCDKTHTCPPCPAPELLAGPSVFLFPPKPKDTLMISRTPEVTCVVVDVSHEDPEVKFNWYVDGVEVHNAKTKPREEQYNSTYRVVSVLTVLHQDWLNGKEYKCKVSNKALPLPEEKTISKAKGQPREPQVYTLPPSRDELTKNQVSLTCLVKGFYPSDIAVEWESNGQPENNYKTTPPVLDSDGSFFLYSKLTVDKSRWQQGNVFSCSVMHEALHNHYTQKSLSLSPGGGGGSGGGGSGGGGSDVQMTQSPSTLSASVGDRVTITCQASENIYSSLAWYQQKPGKPPKLLMYDVSDLASGVPSRFSGSGSGTEFTLTISSLQPDDFATYFCLGGYPSNNYRMAFGCGTKVEIKGGGGSGGGGSGGGGSGGGGSEQQLLESGGGLVQPGGSLRLSCAASGFSFSSSAWIVWVRQAPGKCLEWIGVINTVSVNAYYASWAKGRFTISKDSSKNTVYLQMNSLRAEDTAVYFCARNPYNSLRLWGPGTLVTVSS
light: ELVMTQSPATLSVSPGERATLSCRASEDIENYLAWYQQKPGQPPRLLIYRASTLSSGVPARFSGSGSGTEFTLTISSLQSEDFAVYYCQQGYRNSNVDNPFGGGTKVEIKRTVAAPSVFIFPPSDEQLKSGTASVVCLLNNFYPREAKVQWKVDNALQSGNSQESVTEQDSKDSTYSLSSTLTLSKADYEKHKVYACEVTHQGLSSPVTKSFNRGEC
notes: HC format, optimized Fc; also called humanized CD79b/NKp46 bispecific antibody; humanized NK cell engager

Further lines, the binder ahead of its results:

B1: ch44G2/ch3-7 Fc-silenced (bispecific antibody, human IgG1, kappa, L234A L235A)
heavy: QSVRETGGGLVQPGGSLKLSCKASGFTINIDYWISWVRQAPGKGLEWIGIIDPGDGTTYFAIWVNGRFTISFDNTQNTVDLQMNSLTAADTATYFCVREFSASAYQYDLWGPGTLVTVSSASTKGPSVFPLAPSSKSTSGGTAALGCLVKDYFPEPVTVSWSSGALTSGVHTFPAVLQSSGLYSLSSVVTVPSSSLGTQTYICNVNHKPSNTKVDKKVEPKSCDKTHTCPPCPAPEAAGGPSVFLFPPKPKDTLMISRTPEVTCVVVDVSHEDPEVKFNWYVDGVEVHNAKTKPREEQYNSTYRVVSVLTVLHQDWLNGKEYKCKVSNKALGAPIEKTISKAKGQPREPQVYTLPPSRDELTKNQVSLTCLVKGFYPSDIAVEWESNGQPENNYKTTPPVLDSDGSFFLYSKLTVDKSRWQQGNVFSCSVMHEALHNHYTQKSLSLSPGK
light: DLVMTQTPSSVSAAVGGTVSINCRASEDIENYLAWYQQKPGQPPKLLIYRASTLSSGVSSRFSGSGSGTEFTLTISGVQPDDAATYYCQQGYRNSNVDNPFGGGTEMVVKRTVAAPSVFIFPPSDEQLKSGTASVVCLLNNFYPREAKVQWKVDNALQSGNSQESVTEQDSKDSTYSLSSTLTLSKADYEKHKVYACEVTHQGLSSPVTKSFNRGECGGGGSGGGGSGGGGSGGGGSAFELTQTPSSVEAAVGGTVTINCQASQDIYIYLAWYQQKPGQPPKLLIYSASTLASGVSSRFTGSRSGTQFTLTISDLEPADAATYYCQSYDGTSNTGFGGGTEVVVRGGGGSGGGGSGGGGSGGGGSQSLEESGGRLVTPGTPLTLTCTVSGFSPSSYYMSWVRQAPGKGLEYIGIIFSGGSTWYASWAKGRVTISRTSTTVDLKMTSLTTEDTATYFCARGDAVGSGYWGLWGPGTLVTVSS
notes: LC format: the NKp46 scFv (VL-GS-VH) is joined to the C terminus of the anti-CD79b light chain, with LALAPG silenced Fc; also called CD79b/NKp46 bispecific antibody; 44G2/3-7
binding result [1]: binds | binding result [2]: binds

B4: ch44G2/ch6-1 (HC) Fc-optimized (bispecific antibody, human IgG1, kappa)
heavy: QSVRETGGGLVQPGGSLKLSCKASGFTINIDYWISWVRQAPGKGLEWIGIIDPGDGTTYFAIWVNGRFTISFDNTQNTVDLQMNSLTAADTATYFCVREFSASAYQYDLWGPGTLVTVSSASTKGPSVFPLAPSSKSTSGGTAALGCLVKDYFPEPVTVSWNSGALTSGVHTFPAVLQSSGLYSLSSVVTVPSSSLGTQTYICNVNHKPSNTKVDKRVEPKSCDKTHTCPPCPAPELLAGPSVFLFPPKPKDTLMISRTPEVTCVVVDVSHEDPEVKFNWYVDGVEVHNAKTKPREEQYNSTYRVVSVLTVLHQDWLNGKEYKCKVSNKALPLPEEKTISKAKGQPREPQVYTLPPSRDELTKNQVSLTCLVKGFYPSDIAVEWESNGQPENNYKTTPPVLDSDGSFFLYSKLTVDKSRWQQGNVFSCSVMHEALHNHYTQKSLSLSPGKGGGGSGGGGSGGGGSADVVMTQTPASVSEPVGGTITINCQASENIYSSLAWYQQKPGQPPKLLMYDVSDLASGVPSRFSGSGSGTEFALTISDVQPDDAATYFCLGGYPSNNYRMAFGGGTEVVVKGGGGSGGGGSGGGGSGGGGSQSLEESGGGLVQPEGSLTLTCTASGFSFSSSAWICWVRQAPGKGLEWIGCINTVSVNAYYASWAKGRFTISKTSSTTVTLQVTSLTAADTATHFCARNPYNSLRLWGPGTLVTVSS
light: DLVMTQTPSSVSAAVGGTVSINCRASEDIENYLAWYQQKPGQPPKLLIYRASTLSSGVSSRFSGSGSGTEFTLTISGVQPDDAATYYCQQGYRNSNVDNPFGGGTEMVVKRTVAAPSVFIFPPSDEQLKSGTASVVCLLNNFYPREAKVQWKVDNALQSGNSQESVTEQDSKDSTYSLSSTLTLSKADYEKHKVYACEVTHQGLSSPVTKSFNRGEC
notes: HC format: the NKp46 scFv stands at the C terminus of the heavy chain Fc, with optimized Fc; also called chimeric CD79b/NKp46 bispecific antibody; NK cell engager
binding result [3]: binds | binding result [4]: binds

B5: ch44G2/ch6-1 Fc-silenced (bispecific antibody, human IgG1, kappa, L234A L235A)
heavy: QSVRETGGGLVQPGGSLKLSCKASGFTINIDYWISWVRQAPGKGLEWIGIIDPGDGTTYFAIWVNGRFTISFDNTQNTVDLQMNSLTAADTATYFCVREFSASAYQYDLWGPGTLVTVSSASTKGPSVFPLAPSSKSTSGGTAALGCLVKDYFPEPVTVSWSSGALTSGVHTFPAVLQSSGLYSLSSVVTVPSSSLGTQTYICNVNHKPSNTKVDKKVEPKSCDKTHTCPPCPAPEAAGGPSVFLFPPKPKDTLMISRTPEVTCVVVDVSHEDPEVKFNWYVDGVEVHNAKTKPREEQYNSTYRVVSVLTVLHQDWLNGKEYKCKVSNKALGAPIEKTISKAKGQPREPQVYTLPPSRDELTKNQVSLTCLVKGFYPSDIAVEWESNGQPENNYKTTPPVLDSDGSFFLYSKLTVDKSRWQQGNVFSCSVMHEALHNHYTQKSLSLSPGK
light: B6 light
notes: LC format, LALAPG silenced Fc; also called CD79b/NKp46 bispecific antibody; 44G2/6-1
binding result [1]: binds | binding result [2]: binds
